# B1: FUSE-782 (antibody, human IgG1, kappa, L234A L235A)
# heavy 1: QVQLVESGGGVVQPGRSLRLDCKASGITFSNSGMHWVRQAPGKGLEWVAVIWYDGSKRYYADSVKGRFTISRDNSKNTLFLQMSSLRAEDTAVYYCATNDDYWGQGTLVTVSSASTKGPSVFPLAPSSKSTSGGTAALGCLVKDYFPEPVTVSWNSGALTSGVHTFPAVLQSSGLYSLSSVVTVPSSSLGTQTYICNVNHKPSNTKVDKKVEPKSCDKTHTCPPCPAPEAAGGPSVFLFPPKPKDTLMISRTPEVTCVVVDVSHEDPEVKFNWYVDGVEVHNAKTKPREEQYNSTYRVVSVLTVLHQDWLNGKEYKCKVSNKALPAPIEKTISKAKGQPREPQVYTLPPSREEMTKNQVSLSCAVKGFYPSDIAVEWESNGQPENNYKTTPPVLDSDGSFFLVSKLTVDKSRWQQGNVFSCSVMHEALHNRFTQKSLSLSPGK
# heavy 2: QVQLVESGGGVVQPGRSLRLDCKASGITFSNSGMHWVRQAPGKGLEWVAVIWYDGSKRYYADSVKGRFTISRDNSKNTLFLQMSSLRAEDTAVYYCATNDDYWGQGTLVTVSSASTKGPSVFPLAPSSKSTSGGTAALGCLVKDYFPEPVTVSWNSGALTSGVHTFPAVLQSSGLYSLSSVVTVPSSSLGTQTYICNVNHKPSNTKVDKKVEPKSCDKTHTCPPCPAPEAAGGPSVFLFPPKPKDTLMISRTPEVTCVVVDVSHEDPEVKFNWYVDGVEVHNAKTKPREEQYNSTYRVVSVLTVLHQDWLNGKEYKCKVSNKALPAPIEKTISKAKGQPREPQVYTLPPSREEMTKNQVSLWCLVKGFYPSDIAVEWESNGQPENNYKTTPPVLDSDGSFFLYSKLTVDKSRWQQGNVFSCSVMHEALHNHYTQKSLSLSPGGGGGSGGGGSGGGGSGGGGSAAEPVEDNSINFVAMKFIDNTLYFIAENDENGGGSYFGKLESKLSVIRNLNDQVLFIDQGNRPLFEDMTDSDSRDNAPRTIFIISKYGDSQPRGLAVTISVKSEKISTLSSENKIISFKEMNPPDNIKDTKSDIIFFQRSVPGHDNKVQFESSSYEGYFLASEKERDLFKLILKKEDELGDRSIMFTVQNED
# light: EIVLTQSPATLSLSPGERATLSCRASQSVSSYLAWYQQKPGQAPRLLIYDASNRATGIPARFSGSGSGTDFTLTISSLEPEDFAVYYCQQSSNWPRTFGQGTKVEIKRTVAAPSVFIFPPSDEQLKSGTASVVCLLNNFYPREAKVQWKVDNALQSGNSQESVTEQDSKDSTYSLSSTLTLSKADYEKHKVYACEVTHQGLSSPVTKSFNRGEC
# B2: FUSE-783 (antibody, human IgG1, kappa, L234A L235A)
# heavy 1: QVQLVESGGGVVQPGRSLRLDCKASGITFSNSGMHWVRQAPGKGLEWVAVIWYDGSKRYYADSVKGRFTISRDNSKNTLFLQMSSLRAEDTAVYYCATNDDYWGQGTLVTVSSASTKGPSVFPLAPSSKSTSGGTAALGCLVKDYFPEPVTVSWNSGALTSGVHTFPAVLQSSGLYSLSSVVTVPSSSLGTQTYICNVNHKPSNTKVDKKVEPKSCDKTHTCPPCPAPEAAGGPSVFLFPPKPKDTLMISRTPEVTCVVVDVSHEDPEVKFNWYVDGVEVHNAKTKPREEQYNSTYRVVSVLTVLHQDWLNGKEYKCKVSNKALPAPIEKTISKAKGQPREPQVYTLPPSREEMTKNQVSLSCAVKGFYPSDIAVEWESNGQPENNYKTTPPVLDSDGSFFLVSKLTVDKSRWQQGNVFSCSVMHEALHNRFTQKSLSLSPGK
# heavy 2: QVQLVESGGGVVQPGRSLRLDCKASGITFSNSGMHWVRQAPGKGLEWVAVIWYDGSKRYYADSVKGRFTISRDNSKNTLFLQMSSLRAEDTAVYYCATNDDYWGQGTLVTVSSASTKGPSVFPLAPSSKSTSGGTAALGCLVKDYFPEPVTVSWNSGALTSGVHTFPAVLQSSGLYSLSSVVTVPSSSLGTQTYICNVNHKPSNTKVDKKVEPKSCDKTHTCPPCPAPEAAGGPSVFLFPPKPKDTLMISRTPEVTCVVVDVSHEDPEVKFNWYVDGVEVHNAKTKPREEQYNSTYRVVSVLTVLHQDWLNGKEYKCKVSNKALPAPIEKTISKAKGQPREPQVYTLPPSREEMTKNQVSLWCLVKGFYPSDIAVEWESNGQPENNYKTTPPVLDSDGSFFLYSKLTVDKSRWQQGNVFSCSVMHEALHNHYTQKSLSLSPGGGGGSGGGGSGGGGSGGGGSAAEPVEDNVINFVAMKFIDNTLYFIAENDENGGGSYFGKLESKLSVIRNLNDQVLFIDQGNRPLFEDMTDSDVRDNAPRTIFIISKYGDSQPRGLAVTISVKVEKISTLSVENKIISFKEMNPPDNIKDTKSDIIFFQRSVPGHDNKVQFESSSYEGYFLAVEKERDLFKLILKKEDELGDRSIMFTVQNED
# light: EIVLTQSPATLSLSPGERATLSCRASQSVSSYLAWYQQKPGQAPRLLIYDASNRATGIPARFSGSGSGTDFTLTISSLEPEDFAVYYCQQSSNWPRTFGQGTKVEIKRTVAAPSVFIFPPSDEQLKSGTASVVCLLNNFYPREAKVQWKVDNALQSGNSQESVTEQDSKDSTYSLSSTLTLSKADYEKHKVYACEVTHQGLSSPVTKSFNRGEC
# B3: IL-18AV released from FUSE-442 by enterokinase (ligand)
# chain: YFGKLESKLSVIRNLNDQVLFIDQGNRPLFEDMTDSDVRDNAPRTIFIISMYKDSQPRGMAVTISVKVEKISTLSVENKIISFKEMNPPDNIKDTKSDIIFFQRSVPGHDNKMQFESSSYEGYFLAVEKERDLFKLILKKEDELGDRSIMFTVQNED
# B4: IL-18mut2AV released from FUSE-424 by enterokinase (ligand)
# chain: YFGKLESKLSVIRNLNDQVLFIDQGNRPLFEDMTDSDVRDNAPRTIFIISKYGDSQPRGLAVTISVKVEKISTLSVENKIISFKEMNPPDNIKDTKSDIIFFQRSVPGHDNKVQFESSSYEGYFLAVEKERDLFKLILKKEDELGDRSIMFTVQNED
# What was measured:
# Assay in all cases: cell-based or functional assay
# [1] = target: T1, human IL-18 receptor complex (IL-18Rα/β) (human, UniProt Q13478 19-541; O95256 20-599)
# T1 sequence (looked up) 1: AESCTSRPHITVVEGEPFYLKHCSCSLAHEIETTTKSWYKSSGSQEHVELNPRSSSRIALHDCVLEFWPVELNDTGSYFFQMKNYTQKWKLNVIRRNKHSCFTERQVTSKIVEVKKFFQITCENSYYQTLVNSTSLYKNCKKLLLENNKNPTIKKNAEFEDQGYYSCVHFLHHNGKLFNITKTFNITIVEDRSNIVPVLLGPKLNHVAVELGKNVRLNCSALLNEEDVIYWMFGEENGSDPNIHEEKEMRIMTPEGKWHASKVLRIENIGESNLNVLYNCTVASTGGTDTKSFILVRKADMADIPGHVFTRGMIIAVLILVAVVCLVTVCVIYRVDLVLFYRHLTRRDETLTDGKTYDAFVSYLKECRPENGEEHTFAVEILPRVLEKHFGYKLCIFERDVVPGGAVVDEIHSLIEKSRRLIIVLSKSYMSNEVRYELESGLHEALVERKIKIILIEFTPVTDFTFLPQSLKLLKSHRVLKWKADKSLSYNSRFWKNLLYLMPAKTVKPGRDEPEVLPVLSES
# T1 sequence (looked up) 2: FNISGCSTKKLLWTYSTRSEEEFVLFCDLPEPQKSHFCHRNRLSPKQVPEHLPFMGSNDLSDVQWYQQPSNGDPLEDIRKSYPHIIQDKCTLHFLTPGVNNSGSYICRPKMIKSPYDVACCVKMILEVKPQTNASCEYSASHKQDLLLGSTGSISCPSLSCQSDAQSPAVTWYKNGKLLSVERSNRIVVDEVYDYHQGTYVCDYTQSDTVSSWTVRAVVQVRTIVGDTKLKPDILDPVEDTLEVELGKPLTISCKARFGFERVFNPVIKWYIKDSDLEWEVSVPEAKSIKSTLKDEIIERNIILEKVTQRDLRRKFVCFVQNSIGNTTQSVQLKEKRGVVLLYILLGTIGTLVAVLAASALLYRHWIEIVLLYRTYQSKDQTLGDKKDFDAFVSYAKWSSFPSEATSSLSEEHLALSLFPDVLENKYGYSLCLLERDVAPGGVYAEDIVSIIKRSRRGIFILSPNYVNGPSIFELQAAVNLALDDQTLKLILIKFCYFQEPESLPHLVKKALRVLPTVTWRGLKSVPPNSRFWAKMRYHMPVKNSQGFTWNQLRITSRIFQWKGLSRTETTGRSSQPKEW
# [2] = target: T1, human IL-18 receptor complex (IL-18Rα/β); remark: listed apart in the source
# [3] = target: T2, human recombinant IL-18-BP (human, UniProt O95998 31-194)
# T2 sequence (looked up): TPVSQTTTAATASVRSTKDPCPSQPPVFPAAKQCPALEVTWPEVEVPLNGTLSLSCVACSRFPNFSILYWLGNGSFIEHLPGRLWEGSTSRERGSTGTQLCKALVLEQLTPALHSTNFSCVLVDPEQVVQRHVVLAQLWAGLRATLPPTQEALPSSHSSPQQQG
# [4] = target: T1, human IL-18 receptor complex (IL-18Rα/β); remark: listed apart in the source
binder,measurement,setting,value
B1,"IL18 biological activity on HEK Blue IL18 (trans activity only), attenuation relative to recombinant human IL18",[1],> 100000 fold
same,"SEAP release of PD-1 decorated HEK Blue IL18 (cis activity), increase relative to non targeted FUSE827",[1],~100 fold
same,"SEAP release, PD-1 decorated HEK Blue IL-18 against non-decorated HEK Blue IL18",[1],~100 fold
B2,"IL18 biological activity on HEK Blue IL18 (trans activity only), attenuation relative to recombinant human IL18",[1],~1000 fold
same,"SEAP release of PD-1 decorated HEK Blue IL18 (cis activity), increase relative to non targeted FUSE775",[1],~30 fold
same,"SEAP release, PD-1 decorated HEK Blue IL-18 against non-decorated HEK Blue IL18",[1],~30 fold
B3,"EC50-SEAP, HEK-Blue IL-18 reporter cells, EK-cleaved FUSE-442 titrated in medium alone (row 'FUSE442 + EK')",[2],0.0186 ng/mL
same,"EC50-SEAP, HEK-Blue IL-18 reporter cells, EK-cleaved FUSE-442 titrated in medium with 1.25 µg/ml rhIL-18BP (row 'FUSE442 + EK +BP')",[3],0.211 ng/mL
B4,"EC50-SEAP, HEK-Blue IL-18 reporter cells, EK-cleaved FUSE-424 titrated in medium alone (table G beside graph F 'EK-FUSE424'; the table row itself is labelled 'FUSE442 + EK')",[4],0.0034 ng/mL

# From US20260274968A1 (FUSE BIOTHERAPEUTICS, published 2026)
